For one substance, stoichiometry N results are on record in article PMC7949104.

The target in the assay is E5 C77S mutant. Description: SEC; analytical gel filtration, Superdex 75 10/300 GL, 0.5 ml/min, 50 mM phosphate buffer with 150 mM NaCl, in the presence of a reducing agent; mass from protein standards. In general terms: Size exclusion chromatography separates by hydrodynamic size, large species first.

What is called stoichiometry N is a count of units in the complex or per binding partner. Take E5 C77S mutant (enzyme): the stoichiometry N was determined as 6.
